Patent US12269859B2, “Synthetic immune receptors and methods of use thereof” (Angeles Therapeutics, Inc., priority 2016, dated 2025)

B1: 062717-O02 (protein)
chain: MALPVTALLLPLALLLHAARPLEGKPIPNPLLGLDSTGSGEDLKNVFPPEVAVFEPSKAEIAHTQKATLVCLATGFYPDHVELSWWVNGKEVHSGVCTDPQPLKEQPALNDSRYCLSSRLRVSATFWQNPRNHFRCQVQFYGLSENDEWTQDRAKPVTQIVSAEAWGRADCGITSASYHQGVLSATILYEILLGKATLYAVLVSALVLMAMVKRKDSRGRAKRSGSGATNFSLLKQAGDVEENPGPTSMALPVTALLLPLALLLHAARPEVQLQQSGPGLVKPSQTLSLTCAISGDSVLSNSDTWNWIRQSPSRGLEWLGRTYHRSTWYDDYASSVRGRVSINVDTSKNQYSLQLNAVTPEDTGVYYCARDRLQDGNSWSDAFDVWGQGTMVTVSSGGGGSGGGGSGGGGSQSALTQPASVSGSPGQSITISCTGTSSDVGGYNYVSWYQQHPGKAPKLMIYDVSNRPSGVSNRFSGSKSGNTASLTISGLQAEDEADYYCSSYTSSSTLVYVFGTGTKVTVLTREQKLISEEDGSGIQNPDPAVYQLRDSKSSDKSVCLFTDFDSQTNVSQSKDSDVYITDKCVLDMRSMDFKSNSAVAWSNKSDFACANAFNNSIIPEDTFFPSSDVPCDVKLVEKSFETDTNLNFQNLSVIGFRILLLKVAGFNLLMTLRLWSSRAKRSGSGVKQTLNFDLLKLAGDVESNPGPSRGHMTEYKPTVRLATRDDVPRAVRTLAAAFADYPATRHTVDPDRHIERVTELQELFLTRVGLDIGKVWVADDGAAVAVWTTPESVEAGAVFAEIGPRMAELSGSRLAAQQQMEGLLAPHRPKEPAWFLATVGVSPDHQGKGLGSAVVLPGVEAAERAGVPAFLETSAPRNLPFYERLGFTVTADVEVPEGPRTWCMTRKPGA
B2: 041117-S01 (protein)
chain: MALPVTALLLPLALLLHAARPEVQLQQSGPGLVKPSQTLSLTCAISGDSVLSNSDTWNWIRQSPSRGLEWLGRTYHRSTWYDDYASSVRGRVSINVDTSKNQYSLQLNAVTPEDTGVYYCARDRLQDGNSWSDAFDVWGQGTMVTVSSLEDLKNVFPPEVAVFEPSKAEIAHTQKATLVCLATGFYPDHVELSWWVNGKEVHSGVCTDPQPLKEQPALNDSRYCLSSRLRVSATFWQNPRNHFRCQVQFYGLSENDEWTQDRAKPVTQIVSAEAWGRADCGITSASYHQGVLSATILYEILLGKATLYAVLVSALVLMAMVKRKDSRGRAKRSGSGATNFSLLKQAGDVEENPGPTSMDWIWRILFLVGAATGAHSFEQSALTQPASVSGSPGQSITISCTGTSSDVGGYNYVSWYQQHPGKAPKLMIYDVSNRPSGVSNRFSGSKSGNTASLTISGLQAEDEADYYCSSYTSSSTLVYVFGTGTKVTVLTRIQNPDPAVYQLRDSKSSDKSVCLFTDFDSQTNVSQSKDSDVYITDKCVLDMRSMDFKSNSAVAWSNKSDFACANAFNNSIIPEDTFFPSSDVPCDVKLVEKSFETDTNLNFQNLSVIGFRILLLKVAGFNLLMTLRLWSSRAKRSGSGVKQTLNFDLLKLAGDVESNPGPSRGHMTEYKPTVRLATRDDVPRAVRTLAAAFADYPATRHTVDPDRHIERVTELQELFLTRVGLDIGKVWVADDGAAVAVWTTPESVEAGAVFAEIGPRMAELSGSRLAAQQQMEGLLAPHRPKEPAWFLATVGVSPDHQGKGLGSAVVLPGVEAAERAGVPAFLETSAPRNLPFYERLGFTVTADVEVPEGPRTWCMTRKPGA
B3: 042517-B02 (protein)
chain: MALPVTALLLPLALLLHAARPQSALTQPASASGSPGQSVTISCTGTSSDVGGYNYVSWYQQHPGKAPKLMIYDVSNRPSGVSNRFSGSKSGNTASLTISGLQAEDEADYYCSSYTSSSTLYVFGTGTQLTVLLEDLKNVFPPEVAVFEPSKAEIAHTQKATLVCLATGFYPDHVELSWWVNGKEVHSGVCTDPQPLKEQPALNDSRYCLSSRLRVSATFWQNPRNHFRCQVQFYGLSENDEWTQDRAKPVTQIVSAEAWGRADCGITSASYHQGVLSATILYEILLGKATLYAVLVSALVLMAMVKRKDSRGRAKRSGSGATNFSLLKQAGDVEENPGPTSMDWIWRILFLVGAATGAHSFEEVQLQQSGPGLVKPSQTLSLTCAISGDSMLSNSDTWNWIRQSPSRGLEWLGRTYHRSTWYDDYASSVRGRVSINVDTSKNQYSLQLNAVTPEDTGVYYCARVRLQDGNSWSDAFDVWGQGTMVTVSSTRIQNPDPAVYQLRDSKSSDKSVCLFTDFDSQTNVSQSKDSDVYITDKCVLDMRSMDFKSNSAVAWSNKSDFACANAFNNSIIPEDTFFPSSDVPCDVKLVEKSFETDTNLNFQNLSVIGFRILLLKVAGFNLLMTLRLWSSRAKRSGSGVKQTLNFDLLKLAGDVESNPGPSRGHMTEYKPTVRLATRDDVPRAVRTLAAAFADYPATRHTVDPDRHIERVTELQELFLTRVGLDIGKVWVADDGAAVAVWTTPESVEAGAVFAEIGPRMAELSGSRLAAQQQMEGLLAPHRPKEPAWFLATVGVSPDHQGKGLGSAVVLPGVEAAERAGVPAFLETSAPRNLPFYERLGFTVTADVEVPEGPRTWCMTRKPGA
B4: 040417-V03 (protein)
chain: MALPVTALLLPLALLLHAARPEVQLVESGGGLVQPGRSLRLSCAASGFTFDDYAMHWVRQAPGKGLEWVSGISWNSGSIGYADSVKGRFTISRDNAKNSLYLQMNSLRAEDTALYYCAKDKGGGYYDFWSGSDYWGQGTLVTVSSLEIQNPDPAVYQLRDSKSSDKSVCLFTDFDSQTNVSQSKDSDVYITDKCVLDMRSMDFKSNSAVAWSNKSDFACANAFNNSIIPEDTFFPSSDVPCDVKLVEKSFETDTNLNFQNLSVIGFRILLLKVAGFNLLMTLRLWSSRAKRSGSGVKQTLNFDLLKLAGDVESNPGPTSMDWIWRILFLVGAATGAHSFESSELTQDPAVSVALGQTVRITCQGDSLRSYYASWYQQKPGQAPVLVIYGKNNRPSGIPDRFSGSSSGNTASLTITGAQAEDEADYYCNSRDSSGWVFGGGTKLTVLTREDLKNVFPPEVAVFEPSKAEIAHTQKATLVCLATGFYPDHVELSWWVNGKEVHSGVCTDPQPLKEQPALNDSRYCLSSRLRVSATFWQNPRNHFRCQVQFYGLSENDEWTQDRAKPVTQIVSAEAWGRADCGITSASYHQGVLSATILYEILLGKATLYAVLVSALVLMAMVKRKDSRGRAKRSGSGATNFSLLKQAGDVEENPGPSRGHMTEYKPTVRLATRDDVPRAVRTLAAAFADYPATRHTVDPDRHIERVTELQELFLTRVGLDIGKVWVADDGAAVAVWTTPESVEAGAVFAEIGPRMAELSGSRLAAQQQMEGLLAPHRPKEPAWFLATVGVSPDHQGKGLGSAVVLPGVEAAERAGVPAFLETSAPRNLPFYERLGFTVTADVEVPEGPRTWCMTRKPGA
B5: 042517-A03 (protein)
chain: MALPVTALLLPLALLLHAARPQSALTQPASASGSPGQSVTISCTGTSSDVGGYNYVSWYQQHPGKAPKLMIYDVSNRPSGVSNRFSGSKSGNTASLTISGLQAEDEADYYCSSYTSSSTLYVFGTGTQLTVLLEIQNPDPAVYQLRDSKSSDKSVCLFTDFDSQTNVSQSKDSDVYITDKCVLDMRSMDFKSNSAVAWSNKSDFACANAFNNSIIPEDTFFPSSDVPCDVKLVEKSFETDTNLNFQNLSVIGFRILLLKVAGFNLLMTLRLWSSRAKRSGSGVKQTLNFDLLKLAGDVESNPGPTSMDWIWRILFLVGAATGAHSFEEVQLQQSGPGLVKPSQTLSLTCAISGDSMLSNSDTWNWIRQSPSRGLEWLGRTYHRSTWYDDYASSVRGRVSINVDTSKNQYSLQLNAVTPEDTGVYYCARVRLQDGNSWSDAFDVWGQGTMVTVSSTREDLKNVFPPEVAVFEPSKAEIAHTQKATLVCLATGFYPDHVELSWWVNGKEVHSGVCTDPQPLKEQPALNDSRYCLSSRLRVSATFWQNPRNHFRCQVQFYGLSENDEWTQDRAKPVTQIVSAEAWGRADCGITSASYHQGVLSATILYEILLGKATLYAVLVSALVLMAMVKRKDSRGRAKRSGSGATNFSLLKQAGDVEENPGPSRGHMTEYKPTVRLATRDDVPRAVRTLAAAFADYPATRHTVDPDRHIERVTELQELFLTRVGLDIGKVWVADDGAAVAVWTTPESVEAGAVFAEIGPRMAELSGSRLAAQQQMEGLLAPHRPKEPAWFLATVGVSPDHQGKGLGSAVVLPGVEAAERAGVPAFLETSAPRNLPFYERLGFTVTADVEVPEGPRTWCMTRKPGA
B6: 041917-L04 (protein)
chain: MALPVTALLLPLALLLHAARPLEGKPIPNPLLGLDSTGSGEDLKNVFPPEVAVFEPSKAEIAHTQKATLVCLATGFYPDHVELSWWVNGKEVHSGVCTDPQPLKEQPALNDSRYCLSSRLRVSATFWQNPRNHFRCQVQFYGLSENDEWTQDRAKPVTQIVSAEAWGRADCGITSASYHQGVLSATILYEILLGKATLYAVLVSALVLMAMVKRKDSRGRAKRSGSGATNFSLLKQAGDVEENPGPTSMALPVTALLLPLALLLHAARPQVQLVQSGAEVKKPGASVKVSCKASGYTFTSYDINWVRQATGQGLEWMGWMNPNSGNTGYAQKFQGRVTMTRNTSISTAYMELSSLRSEDTAVYYCARGDSTKVEIKGGGGSGGGGSGGGGSQSVLTQPRSVSGSPGQSVTISCTGTSSDVGGYNYVSWYQQHPGEAPKLIIYDADKRPSGISNRFSSGKSGNTASLTISGLQVEDEADYYCCSYAGGSTWVFGGGTKVTVLTREQKLISEEDGSGIQNPDPAVYQLRDSKSSDKSVCLFTDFDSQTNVSQSKDSDVYITDKCVLDMRSMDFKSNSAVAWSNKSDFACANAFNNSIIPEDTFFPSSDVPCDVKLVEKSFETDTNLNFQNLSVIGFRILLLKVAGFNLLMTLRLWSSRAKRSGSGVKQTLNFDLLKLAGDVESNPGPSRGHMTEYKPTVRLATRDDVPRAVRTLAAAFADYPATRHTVDPDRHIERVTELQELFLTRVGLDIGKVWVADDGAAVAVWTTPESVEAGAVFAEIGPRMAELSGSRLAAQQQMEGLLAPHRPKEPAWFLATVGVSPDHQGKGLGSAVVLPGVEAAERAGVPAFLETSAPRNLPFYERLGFTVTADVEVPEGPRTWCMTRKPGA

Test system: target antigen-expressing cell line
Experiment: Jurkat NFAT-GFP assay, coculture with target cell lines expressing the respective target antigen (summary Table 10A)
Type: cell-based, human
Set-up: key: The signs +/−, +, 2+ etc. after the name of the cell lines indicate the relative degree of positivity on the Jurkat-NFAT-GFP assay as measured by the % GFP positive cells; +: relative degree of positivity on the Jurkat-NFAT-GFP assay as measured by the % GFP positive cells; 2+: relative degree of positivity on the Jurkat-NFAT-GFP assay as measured by the % GFP positive cells
Conditions: relative % GFP positive cells; for NFAT-GFP ASSAY Positive Cell lines: RAJI: SIR-expressing Jurkat-NFAT-GFP cells cocultured with RAJI
Method in brief: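 Jurkat cells carrying an NFAT-driven GFP reporter and lentivirally expressing a SIR were cocultured with antigen-bearing target cells (E:T ~1:2) for about 4–18 h. GFP induction read by flow cytometry as % GFP+ cells, scored positive and graded (+/−, +, 2+) against parental Jurkat-NFAT-GFP cells.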

| Molecule | NFAT-GFP ASSAY Positive Cell lines: RAJI | NFAT-GFP ASSAY Positive Cell lines: NALM6 (SIR-expressing Jurkat-NFAT-GFP cells cocultured with NALM6) |
| --- | --- | --- |
| B1 | RAJI (+/−) | – |
| B2 | RAJI (+/−) | – |
| B3 | RAJI (+), NALM6 | (+/−) |
| B4 | RAJI (+/−) | – |
| B5 | RAJI (+) | – |
| B6 | RAJI (+/−) | – |
